biological target: P3028 (SEQ ID NO: 185) (Homo sapiens, UniProt P02768); experiment: PEPSCAN ELISA (rampo assay): binding of His-tagged P3028 to immobilised peptides; details: truncations, deletions, glycine substitutions
Description: Based on the structure of peptide P28R, additional peptides were identified that bind to P3028. The additional binders included deletions, truncations, and or amino acid substitutions of peptide P28R. Binding of peptides to P3028 was assayed using PEPSCAN technology. PEPSCAN technology, or “rampo” assays are biochemical binding assays, details of which are provided below:
A peptide microarray screening technology was used to measure binding of P28R (SEQ ID NO: 2) and variants of P28R to P3028 (SEQ ID NO: 185). In this technology libraries of synthetic peptides are synthesized and covalently linked onto polypropylene microarray chips. The linear peptides were synthesized onto credit-card format polypropylene cards (455 peptide formats/card) as described by (Timmerman et al., 2004) using standard Fmoc-chemistry using hexamethylenediamine (HMDA) as linker and deprotection using trifluoroacetic acid (TFA) with scavengers.
The binding of His-tagged P3028 to each peptide on the card was tested in an ELISA assay. The 455-well credit card format polypropylene cards containing the covalently linked peptides were incubated with His-tagged P3028 peptide (PGE73) solution consisting of 0.5 μg/mL diluted in blocking solution (4% horse serum, 5% ovalbumin (w/v) in PBS/1% Tween). After washing, the peptides were incubated with a monoclonal mouse anti-His-tag antibody (Novagen®, 70796-3, diluted 1/1000 in the incubation buffer) and subsequently after washing with a rabbit-anti-mouse antibody peroxidase (Rampo) conjugate (Southern Biotech®, 6175-05, diluted 1/1000), for one hour at 25° C. After washing, the peroxidase substrate 2,2′-azine-di-3-ethylbenzthiazoline sulfonate (ABTS) and 2 μL of 3% H2O2 were added. The binding capacity of the mAb was measured as a color development at 405 nm (optical density, OD405). The color development was quantified with a charge-coupled device (CCD)—camera and an image processing system.
The OD405-values obtained by a CCD-camera was considered as raw data values (“rampo values,” “rampo units,” or “rampo scores”). The values mostly ranged from 0 to 3000, a log scale similar to 1 to 3 of a standard 96-well plate ELISA-reader. First the CCD-camera made a picture of the card before peroxidase coloring and then again a picture after the peroxidase coloring. […] These values were copied into an excel file and labeled as a raw data file. One follow-up manipulation was allowed. Sometimes a well can contain an air-bubble resulting in a false-positive value. If manual inspection of the cards detect an air-bubble the value are set to 0 for that well.
A library of peptides tested for binding to peptide P3028 included all substitutions for each position of the peptide P28R (SEQ ID NO: 2) (i.e., 19 substitutions for each position). The results of the binding experiments are shown in FIGS. 27, 28, 29 and 30 and Table 5.1. […] P28R had rampo values ranging between 262 and 460 with a mean value of 370. […] In addition, M and S in position 7 (SEQ ID NOs: 9 and 10, respectively), and Q and M in position 11 (SEQ ID NOs: 15 and 16, respectively) all have rampo values over 700.
For each position of P28R, the rampo scores of the group of 19 different peptides containing an L-amino acid substitution were compared to the rampo score of a control sample P28R peptide (SEQ ID NO: 2) for that group. Single-amino acid substitutions having a rampo score greater than or substantially equivalent to P28R were identified. As used herein, a rampo score “substantially equivalent to P28R” is a rampo score that is at least 98% of the rampo score of P28R. Thus, variants of P28R having equivalent or better binding to P3028 were identified.

Row | rampo score / affinity to P3028 compared with P28R | Substance
1 | comparable to P28R | KKLDGFFVKLSLFTER [SEQ ID NO: 95]
2 | retained a high affinity | KKLDTFFVKLSLFTE [SEQ ID NO: 34]
3 | comparable rampo score | FVKL [SEQ ID NO: 63]
4 | comparable to P28R | KKLDTFFVKLGLFTER [SEQ ID NO: 99]
5 | comparable to P28R | KKGDTFFVKLSLFTER [SEQ ID NO: 287]
6 | comparable to P28R | KKLDTFFVGLSLFTER [SEQ ID NO: 98]

Row | Substance | rampo score / affinity to P3028 compared with P28R
7 | KKLDTFVKLSLFTER [SEQ ID NO: 65] | comparable to, or higher than peptide P28R
8 | KKFFVKLSLFTER [SEQ ID NO: 76] | comparable to, or higher than peptide P28R
9 | KKLTFFVKLSLFTER [SEQ ID NO: 64] | comparable to, or higher than peptide P28R
10 | KKLDTFFVKLSFTER [SEQ ID NO: 68] | comparable to, or higher than peptide P28R
11 | KKLDTFGVKLSLFTER [SEQ ID NO: 96] | comparable to P28R

test system: PBMCs; experiment: IL-2 induced proliferation of PBMCs, 3H-thymidine incorporation (human ex vivo model); assay type: cell-based; details: PBMCs from healthy control samples, 7 days, 3H-thymidine
Description: 100 μl of RPMI1640 supplemented with 200 IU/ml penicillin, […] streptomycin, 4 mM L-glutamine (all from Sigma® Chemical Co. MO, US) and 20% heat-inactivated human serum (autologous or from cancer patients) were added to uncoated, HSA or HSA/IgG coated tissue culture microtiter plates. PBMC, isolated from healthy individuals or patients with metastatic renal cell carcinoma, were diluted in RPMI/2% HSA at a concentration of 5×10^5/ml and 100 μl were added to the microtiter wells. Interleukin-2 (IL-2, Proleukin®, Chiron®, NL), at a final concentration of 120 IU/well, was added to some wells. Cells were cultured for 7 days in a humidified, 5% CO2-atmosphere at 37° C. Proliferation was assayed by incorporation of 1.6 μCi/well of [^3H]-thymidine (Amersham® Int., UK) during the last 18 hrs. Mean values of dpm (disintegrations per minute) of triplicates were used for the calculations.
Cultures for IL-2 induced proliferation was set up with PBMC from healthy donors and autologous serum as described above with the exception that PBMC were first pre-incubated for 30 min at room temperature with the indicated albumin peptides at a concentration of 10 μg/ml.
Round-bottomed, 96-well tissue culture plates (Costar®, Corning® Inc. NY, US) were pre-coated with HSA only or HSA and pooled human IgG for intravenous injection (Gammagard®, Baxter AS, DK) as follows; HSA was diluted in RPMI1640 without supplements to a concentration of 10 mg/ml. A mixture of 1 mg/ml IgG in a solution of 9 mg/ml HSA in RPMI (HSA/IgG) was also prepared. 200 μl of HSA or HSA/IgG were then added to each well of the plate. The plates were incubated at 4° C. for 30 minutes after which the wells were washed twice with 200 μl of RPMI1640. The coated plates were used immediately. 100 μl of RPMI1640 supplemented with 200 IU/ml penicillin, […] streptomycin, 4 mM L-glutamine (all from Sigma® Chemical Co. MO, US) and 20% heat-inactivated human serum (autologous) were added to the HSA or HSA/IgG coated tissue culture microtiter wells. PBMC, isolated from healthy individuals, were diluted in RPMI/2% HSA and peptides were added directly to the cell suspension at a concentration of 10 μg/ml. One hundred μl of this cell suspension (5×10^4 lymphocytes) was then added per well providing a final concentration of 5 μg/ml peptide per well. IL-2 (Proleukin®, Chiron®, NL), at a final concentration of 120 IU/well, was added to the wells. Cells were cultured for 7 days in a humidified, 5% CO2-atmosphere at 37° C. Proliferation was assayed by incorporation of 1.6 μCi/well of [^3H]-thymidine (Amersham® Int., UK) during the last 18 hrs. Mean values of dpm (disintegrations per minute) of triplicates were used for the calculations.
The model included PBMCs isolated from venous blood samples from healthy blood donors (control samples) or cancer patients. One hundred pI of culture medium (RPMI 1640 Dutch's modification (Gibco®, InVitrogenAB®, Stockholm, Sweden) supplemented with 200 IV/ml penicillin, 200 ug/ml streptomycin, 4 mM L-glutamine (all from Sigma® Chemical Co. MO, US) and 20% heat-inactivated human serum) were added to roundbottomed, 96-well tissue culture plates (Costar®, Corning® Inc. NY, US). […] Control sample wells without IL-2 was set up in parallel. […]
The effect of different peptides on IL-2 induced proliferation was analyzed in the human ex vivo model, using PBMCs from healthy control samples. […] Proliferation was measured as incorporation of ^3H-thymidine during the final 18 hours. […]

Row | Substance | inhibition of IL-2 induced proliferation
12 | KVPQVSTPTLVEVSR (listed as Homo sapiens) [P3029] | none

test system: PBMCs from healthy control person; experiment: PBMC activation (CD69/CD71, flow cytometry) in RPMI plus 10% human AB serum; assay type: cell-based; details: 40 μg/mL, 24 hours, healthy PBMCs
Description: The activity of peptide P28R (SEQ ID NO: 2) and modifications of P28R was studied in a human ex vivo model using PBMCs in short term cultures, 24 or 48 hours. Effects of P28R and modifications of P28R on PBMCs from a healthy control person were studied. Activation was measured as percentage of cells with enhanced marker CD69 using flow cytometry. PBMCs were incubated with the peptides (40 μg/mL) for 24 hours in RPMI plus 10% human AB serum.
As observed in Example 37, P28R (SEQ ID NO: 2) can stimulate PBMCs from healthy controls in short term cultures when RPMI plus 10% normal human AB serum is used as culture medium. Truncations of P28R were also assessed for their ability to activate PBMCs. PBMCs were incubated with the peptides (40 μg/mL) for 24 hours in RPMI plus 10% human AB serum. PBMC activation was measured as percent cells with enhanced expression of either CD69 (FIG. 42A) or CD71 (FIG. 42B) using flow cytometry. Two experiments were performed for each peptide.
Effects of modified peptides on activation of PBMCs from healthy control person were assessed. Activation was determined as percentage of cells with enhanced marker CD69 or CD71 using flow cytometry. PBMCs were incubated with the peptides (40 μg/mL) for 48 hours in RPMI plus 10% human AB serum.

Row | Substance | PBMC activation, enhanced CD69 or CD71
13 | KKLDTFFPKLSLFTER [SEQ ID NO: 329] | did not activate

same assay, conditions: 40 μg/mL, 24 hours, healthy control person

Row | Substance | PBMC activation, cells with enhanced CD69
14 | KKLDTFFVKLSLFTFR [SEQ ID NO: 571] | did not stimulate
15 | KSLDTFFVKLSLFTER [SEQ ID NO: 510] | did not stimulate
16 | KKLDTFFVDLSLFTER [SEQ ID NO: 569] | did not stimulate
17 | KKLDTVMVKLQLMTER [compound 30680] | induced activation
18 | KKLDTFFVNLSLFTER [SEQ ID NO: 518] | did not stimulate

same assay, conditions: 40 μg/mL, 48 hours, healthy control person

Row | Substance | PBMC activation, enhanced CD69 and CD71
19 | RKLDTFFVKLSLFTERRR [compound 32814] | stimulatory effect in short term cultures similar to that of P28R

Source: patent publication US10881709B2, “Immune system modulators and compositions” (Canimguide Therapeutics AB, priority 2015, dated 2021)
